According to PMC8307404, “Crystal Structure-Guided Design of Bisubstrate Inhibitors and Photoluminescent Probes for Protein Kinases of the PIM Family” (Molecules, 2021):
Square brackets hold non-standard residues; d marks the D form. Peptide text beside a SMILES is read from it. * marks the point of attachment. X3 = O=C(CCCCCNCc1nc2c(sc3cc(Br)cnc32)c(=O)[nH]1)*

What was measured:
Assay in all cases: Kinase profiling (radiometric filter-binding)
Assay type in all cases: biochemical
TSSK1 = molecular target: T1, TSSK1 (Homo sapiens, UniProt Q9BXA7); conditions: TSSK1, 1 µM inhibitor; read-out: Residual activity, %
T1 sequence (Q9BXA7 1-367): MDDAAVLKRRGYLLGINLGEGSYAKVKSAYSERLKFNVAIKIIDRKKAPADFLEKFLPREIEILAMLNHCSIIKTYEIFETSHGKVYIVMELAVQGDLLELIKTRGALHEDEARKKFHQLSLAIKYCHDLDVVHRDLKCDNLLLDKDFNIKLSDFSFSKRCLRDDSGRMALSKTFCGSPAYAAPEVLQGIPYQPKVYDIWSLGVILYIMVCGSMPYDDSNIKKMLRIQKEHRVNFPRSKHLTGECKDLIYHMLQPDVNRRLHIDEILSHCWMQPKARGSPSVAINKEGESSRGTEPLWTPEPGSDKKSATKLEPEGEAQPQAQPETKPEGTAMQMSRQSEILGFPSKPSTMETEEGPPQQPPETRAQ
Procedure, shortened: (§1)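 Single-point selectivity screen at 1 µM total inhibitor concentration across a panel of 139 or 140 human PKs, using radioactive filter-binding detection with ATP near or below KM; data are % activity remaining versus untreated control.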

TAK1 = molecular target: T2, TAK1 (Homo sapiens, UniProt O43318); conditions: TAK1, 1 µM inhibitor; read-out: Residual activity, %
T2 sequence (O43318 1-303 limits assumed): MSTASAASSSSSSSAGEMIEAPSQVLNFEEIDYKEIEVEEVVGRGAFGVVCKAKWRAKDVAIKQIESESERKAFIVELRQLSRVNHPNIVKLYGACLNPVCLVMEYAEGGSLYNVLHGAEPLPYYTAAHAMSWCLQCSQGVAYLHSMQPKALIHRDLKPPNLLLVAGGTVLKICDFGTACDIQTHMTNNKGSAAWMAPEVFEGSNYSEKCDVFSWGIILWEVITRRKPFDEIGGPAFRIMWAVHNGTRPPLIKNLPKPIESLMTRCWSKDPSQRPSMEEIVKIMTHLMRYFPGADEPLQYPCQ
Procedure, shortened: as §1

EPH-B2 = molecular target: T3, EPH-B2 (Homo sapiens, UniProt P29323); conditions: EPH-B2, 1 µM inhibitor; read-out: Residual activity, %
T3 sequence (P29323 19-1055): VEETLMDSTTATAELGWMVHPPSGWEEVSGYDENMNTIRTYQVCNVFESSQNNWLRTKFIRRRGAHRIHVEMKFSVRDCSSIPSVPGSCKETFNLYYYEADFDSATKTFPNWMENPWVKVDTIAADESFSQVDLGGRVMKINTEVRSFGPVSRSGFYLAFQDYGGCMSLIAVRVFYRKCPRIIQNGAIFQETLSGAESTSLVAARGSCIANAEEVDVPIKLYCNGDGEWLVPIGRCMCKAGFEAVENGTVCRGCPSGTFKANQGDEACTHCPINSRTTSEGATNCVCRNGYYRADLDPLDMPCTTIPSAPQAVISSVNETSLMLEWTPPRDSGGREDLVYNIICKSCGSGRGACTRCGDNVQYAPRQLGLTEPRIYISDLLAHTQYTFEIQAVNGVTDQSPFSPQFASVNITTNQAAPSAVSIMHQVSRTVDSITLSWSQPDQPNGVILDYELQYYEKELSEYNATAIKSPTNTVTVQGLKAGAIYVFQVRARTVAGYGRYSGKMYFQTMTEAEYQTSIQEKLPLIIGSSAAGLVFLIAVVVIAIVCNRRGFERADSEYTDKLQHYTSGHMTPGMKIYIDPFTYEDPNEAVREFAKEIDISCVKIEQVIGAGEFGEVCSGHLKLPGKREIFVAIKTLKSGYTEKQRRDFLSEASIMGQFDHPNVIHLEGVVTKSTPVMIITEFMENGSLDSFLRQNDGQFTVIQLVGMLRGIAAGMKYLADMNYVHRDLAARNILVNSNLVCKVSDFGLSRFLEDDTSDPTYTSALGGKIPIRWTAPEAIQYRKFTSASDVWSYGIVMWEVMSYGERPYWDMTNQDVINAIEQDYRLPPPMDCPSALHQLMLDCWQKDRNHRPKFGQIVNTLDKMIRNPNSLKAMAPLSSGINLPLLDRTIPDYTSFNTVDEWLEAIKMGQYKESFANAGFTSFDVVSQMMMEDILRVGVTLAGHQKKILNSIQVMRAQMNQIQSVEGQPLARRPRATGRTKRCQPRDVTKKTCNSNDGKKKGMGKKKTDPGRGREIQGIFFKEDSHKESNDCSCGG
Procedure, shortened: as §1

MARK4 = molecular target: T4, MARK4 (Homo sapiens, UniProt Q96L34); conditions: MARK4, 1 µM inhibitor; read-out: Residual activity, %
T4 sequence (Q96L34 1-752): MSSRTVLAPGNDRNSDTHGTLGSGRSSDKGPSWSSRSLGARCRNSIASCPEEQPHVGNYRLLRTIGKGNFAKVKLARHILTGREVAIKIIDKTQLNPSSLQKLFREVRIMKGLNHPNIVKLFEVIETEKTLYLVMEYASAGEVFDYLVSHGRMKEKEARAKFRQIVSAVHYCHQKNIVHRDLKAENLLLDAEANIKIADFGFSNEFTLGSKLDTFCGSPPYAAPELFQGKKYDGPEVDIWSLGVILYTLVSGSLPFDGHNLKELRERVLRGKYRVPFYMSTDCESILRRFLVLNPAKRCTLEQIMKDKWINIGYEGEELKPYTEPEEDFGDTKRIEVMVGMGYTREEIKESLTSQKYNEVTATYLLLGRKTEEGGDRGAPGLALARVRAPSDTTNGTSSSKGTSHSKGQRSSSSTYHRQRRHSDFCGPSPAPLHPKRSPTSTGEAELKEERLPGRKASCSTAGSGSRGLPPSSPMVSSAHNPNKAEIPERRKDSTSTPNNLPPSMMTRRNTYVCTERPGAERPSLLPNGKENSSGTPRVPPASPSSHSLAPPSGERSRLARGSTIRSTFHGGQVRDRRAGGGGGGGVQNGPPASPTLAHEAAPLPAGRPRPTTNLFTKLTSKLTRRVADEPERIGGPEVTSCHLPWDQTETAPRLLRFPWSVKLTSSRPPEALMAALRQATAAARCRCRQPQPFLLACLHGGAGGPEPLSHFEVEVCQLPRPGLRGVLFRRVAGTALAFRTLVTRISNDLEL
Procedure, shortened: as §1

Work on N=C(N)NCCC[C@@H](NC(=O)CNC(=O)[C@@H](CCCNC(=N)N)NC(=O)[C@@H](CCCNC(=N)N)NC(=O)CCCCCCCNCc1nc2c(sc3cc(Br)cnc32)c(=O)[nH]1)C(=O)N[C@H](CCCCN)C(N)=O [Compound 1, BPTP-Aoc-(D-Arg)2-Gly-D-Arg-D-Lys-NH2] yielded a remaining activity at 1 µM (TSSK1) of 98 ± 9%, a remaining activity at 1 µM (TAK1) of 107 ± 3% and a remaining activity at 1 µM (EPH-B2) of 95 ± 16%. It also gave a remaining activity at 1 µM (MARK4) of 124 ± 14%.

N=C(N)NCCC[C@@H](NC(=O)CCCCCNCc1nc2c(sc3cc(Br)cnc32)c(=O)[nH]1)C(=O)N[C@H](CCCNC(=N)N)C(=O)N[C@H](CCCNC(=N)N)C(=O)N[C@H](CCCNC(=N)N)C(=O)N[C@H](CCCNC(=N)N)C(=O)N[C@H](CCCNC(=N)N)C(=O)N[C@H](CCCCN)C(N)=O [ARC-3126, BPTP-Ahx-(D-Arg)6-D-Lys-NH2] (X3-[dR][dR][dR][dR][dR][dR][dK]-NH2) was tested, and the remaining activity at 1 µM (TSSK1) was 97 ± 16%, the remaining activity at 1 µM (TAK1) was 88 ± 17% and the remaining activity at 1 µM (EPH-B2) was 107 ± 4%. The remaining activity at 1 µM (MARK4) was 119 ± 7%.

N=C(N)NCCC[C@@H](NC(=O)CCCCCNC(=O)Cn1cnc2c(I)c(I)c(I)c(I)c21)C(=O)N[C@H](CCCNC(=N)N)C(=O)N[C@H](CCCNC(=N)N)C(=O)N[C@H](CCCNC(=N)N)C(=O)N[C@H](CCCNC(=N)N)C(=O)N[C@H](CCCNC(=N)N)C(=O)N[C@H](CCCCN)C(N)=O [ARC-3125, TIBI-CH2-C(=O)-Ahx-(D-Arg)6-D-Lys-NH2] gave a remaining activity at 1 µM (TSSK1) of 63 ± 6%, a remaining activity at 1 µM (TAK1) of 9 ± 4% and a remaining activity at 1 µM (EPH-B2) of 102 ± 8%. The remaining activity at 1 µM (MARK4) was 92 ± 3%.

N=C(N)NCCC[C@@H](NC(=O)CNC(=O)[C@@H](CCCNC(=N)N)NC(=O)[C@@H](CCCNC(=N)N)NC(=O)CCCCCCCNCc1nc2c(sc3ccc(Br)cc32)c(=O)[nH]1)C(=O)N[C@H](CCCCN)C(N)=O [Compound 2, BBTP-Aoc-(D-Arg)2-Gly-D-Arg-D-Lys-NH2] was tested, and the remaining activity at 1 µM (TSSK1) was 108%, the remaining activity at 1 µM (TAK1) was 101 ± 1% and the remaining activity at 1 µM (EPH-B2) was 100 ± 5%. It also gave a remaining activity at 1 µM (MARK4) of 128 ± 3%.

For N=C(N)NCCC[C@@H](NC(=O)CNC(=O)[C@@H](CCCNC(=N)N)NC(=O)[C@@H](CCCNC(=N)N)NC(=O)Cn1cc(CNCc2nc3c(sc4ccc(Br)cc43)c(=O)[nH]2)nn1)C(=O)N[C@H](CCCCN)C(N)=O [Compound 3, BBTP-Amt-(D-Arg)2-Gly-D-Arg-D-Lys-NH2], the remaining activity at 1 µM (TSSK1) was 100 ± 10%, the remaining activity at 1 µM (TAK1) was 99 ± 10% and the remaining activity at 1 µM (EPH-B2) was 96 ± 14%. The remaining activity at 1 µM (MARK4) was 90 ± 12%.
